The values below come from patent publication US20120172285A1 (Dana-Farber, published 2012).

Bridges are numbered along the chain shown (N, C = ends). Where no end group is shown, it is not given here. [ ]: non-standard residue; d: D form. The star is where a group is joined. FITC = O=C1OC2(c3ccc(O)cc3Oc3cc(O)ccc32)c2ccc(NC(=S)*)cc21; S5 = C=CCCC[C@](C)(N)C(=O)O; Nle = CCCC[C@H](N)C(=O)O

For assay [1], the target named is recombinant human MCL-1ΔNΔC (amino acids 172-320) (human) (UniProt Q07820). Put plainly: fluorescence polarization (FPA), FITC-NOXA SAHBB, dilution series of the protein [left graph].
In assay [2] the target is recombinant BCL-wΔC (UniProt Q92843). Put plainly: fluorescence polarization (FPA), FITC-SAHB with recombinant anti-apoptotic protein [upper table].
The target of assay [3] is recombinant BCL-XLΔC (UniProt Q07817). The assay is described as above.
In assay [4] the target is recombinant human MCL-1ΔNΔC (amino acids 172-320) (human) (UniProt Q07820). Described as above.
For assay [5], the target named is recombinant BFL-1/A1ΔC (UniProt Q16548). Described as above.
In assay [6] the target is recombinant human MCL-1ΔNΔC (amino acids 172-320) (human) (UniProt Q07820). Put plainly: FPA, FITC-SAHB against MCL-1ΔNΔC.
In assay [7] the target is recombinant BCL-wΔC (UniProt Q92843). Put plainly: fluorescence polarization (FPA), FITC-SAHB with recombinant anti-apoptotic protein [lower table].
The target in assay [8] is recombinant BCL-XLΔC (UniProt Q07817). The assay is described as above.
For assay [9], the target named is recombinant human MCL-1ΔNΔC (amino acids 172-320) (human) (UniProt Q07820). The description is as above.
Assay [10] addresses recombinant BFL-1/A1ΔC (UniProt Q16548). Described as above.
The target of assay [11] is recombinant human MCL-1ΔNΔC (amino acids 172-320) (human) (UniProt Q07820). Put plainly: fluorescence polarization (FPA), FITC-SAHB, dilution series of MCL-1ΔNΔC [top panel].
Assay [12] concerns the target recombinant BFL-1/A1ΔC (UniProt Q16548). Put plainly: fluorescence polarization (FPA), FITC-SAHB with recombinant protein; axis Concentration [log(pM)] [left panel].
The target of assay [13] is T1, recombinant human MCL-1ΔNΔC (amino acids 172-320) (human, UniProt Q07820 172-320).
T1 construct: also called rMCL-1; MCL-1NC
Put plainly: FPA, FITC-SAHB against MCL-1ΔNΔC. On the procedure: (§1) For direct binding experiments, dissociation constants (KD) were calculated by nonlinear regression analysis of dose-response curves using Prism software (Graphpad). For competition experiments, Ki values were determined by nonlinear regression analysis of dose-response curves using a one-site competition model.
The native alpha-helical structure of BH3 domains was reinforced by incorporating non-natural amino acids containing olefin tethers at the (i, i+4) positions of the non-interacting face, followed by ruthenium catalyzed olefin metathesis to yield a panel of stapled BH3 domains (FIG. 7).

In assay [14] the target is T1, recombinant human MCL-1ΔNΔC (amino …). Put plainly: fluorescence polarization (FPA), FITC-SAHB, dilution series of MCL-1ΔNΔC [top panel]. On the procedure:
as §1
(§2) To measure the binding activity of SAHBs for MCL-1, fluorescence polarization binding assays were performed (FIG. 8). To generate a stable MCL-1 protein suitable for such binding studies (i.e., the published full-length and carboxy-terminus deleted forms of recombinant MCL-1 degrade rapidly, rendering it difficult to maintain a homogenous solution of pure MCL-1 protein), a recombinant form of MCL-1 (rMCL-1) was produced that lacked its amino- and carboxy-terminus, “MCL-1ΔNΔC”, but retained the critical BCL-2 homology domains and adjoining protein sequences that give rise to the BH3-binding cleft (SEQ ID NO: 72). The pGEX-4T vector was used to produce the GST-fusion protein of MCL-1ΔNΔC and purification was achieved by glutathione sepharose chromatography, affinity tag cleavage with thrombin at room temperature overnight, followed by size exclusion chromatography. […] Fluorescence polarization was measured on a BMG POLARstar Optima or Spectramax and dissociation constants determined by nonlinear regression analysis using Prism software 4.0 (Graphpad) (FIG. 8).

Assay [15] has the same target. Put plainly: fluorescence polarization (FPA), FITC-SAHB with recombinant anti-apoptotic protein [lower table]. Here is the method:
as §1
(§3) To measure the binding activity of SAHBs for MCL-1, fluorescence polarization binding assays were performed (FIG. 8). To generate a stable MCL-1 protein suitable for such binding studies (i.e., the published full-length and carboxy-terminus deleted forms of recombinant MCL-1 degrade rapidly, rendering it difficult to maintain a homogenous solution of pure MCL-1 protein), a recombinant form of MCL-1 (rMCL-1) was produced that lacked its amino- and carboxy-terminus, “MCL-1ΔNΔC”, but retained the critical BCL-2 homology domains and adjoining protein sequences that give rise to the BH3-binding cleft (SEQ ID NO: 72). The pGEX-4T vector was used to produce the GST-fusion protein of MCL-1ΔNΔC and purification was achieved by glutathione sepharose chromatography, affinity tag cleavage with thrombin at room temperature overnight, followed by size exclusion chromatography. Serial dilutions of MCL-1ΔNΔC in 50 mM Tris pH 8, 150 mM NaCl were incubated with a fixed concentration of FITC-derivatized SAHB (10-50 nM) until equilibrium was reached. Fluorescence polarization was measured on a BMG POLARstar Optima or Spectramax and dissociation constants determined by nonlinear regression analysis using Prism software 4.0 (Graphpad) (FIG. 8).

Assay [16] has the same target. Put plainly: fluorescence polarization (FPA), FITC-SAHB with recombinant protein; axis Concentration [log(pM)] [right panel].
The target is the same in assay [17]. Put plainly: competition FPA, FITC-BAK SAHB and MCL-1ΔNΔC with MCL-1 SAHBs as competitors. On the procedure: (§4) Briefly, FITC-SAHB (50 nM) was added to serial dilutions of FPLC-purified recombinant protein in binding buffer (50 mM Tris, 100 mM NaCl, pH 8.0). […] Multiwell plates were incubated in the dark at room temperature until equilibrium was reached and fluorescence polarization (mP units) was measured by microplate reader (SpectraMax, Molecular Devices). For direct binding experiments, dissociation constants (KD) were calculated by nonlinear regression analysis of dose-response curves using Prism software (Graphpad). For competition experiments, Ki values were determined by nonlinear regression analysis of dose-response curves using a one-site competition model.
(§5) FP (mP units) was measured at equilibrium by microplate reader (e.g., Spectramax) and Kᵢ values calculated by nonlinear regression analysis of dose-response curves using Prism software (Graphpad).

Assay [18] shares this target. Put plainly: fluorescence polarization (FPA), FITC-SAHB, dilution series of MCL-1ΔNΔC [middle panel]. On the procedure:
as §1, §3

For assay [19] the target is unchanged. Put plainly: fluorescence polarization (FPA), FITC-SAHB with recombinant anti-apoptotic protein [upper table]. On the procedure: as §1, §2
The target is the same in assay [20]. Put plainly: competition FPA: dilution series of acetylated MCL-1 SAHB against FITC-BAK SAHB on MCL-1ΔNΔC. Here is the method:
as §4, §5

Assay [21] has the same target. Put plainly: FPA. On the procedure: as §1
The alanine scan was supplemented with glutamate mutagenesis of alanine and glycine residues.

Chain of recombinant human MCL-1ΔNΔC (amino acids 172-320) (human) (Q07820 172-320 limits assumed, stated change not applied): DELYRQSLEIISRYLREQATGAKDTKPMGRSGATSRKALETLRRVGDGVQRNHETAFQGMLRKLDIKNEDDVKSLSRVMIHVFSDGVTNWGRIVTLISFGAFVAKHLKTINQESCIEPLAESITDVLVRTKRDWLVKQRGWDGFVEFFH
T1 sequence (Q07820 172-320 limits assumed, stated change not applied): as above
Chain of recombinant BCL-XLΔC (Q07817 1-212, stated change not applied): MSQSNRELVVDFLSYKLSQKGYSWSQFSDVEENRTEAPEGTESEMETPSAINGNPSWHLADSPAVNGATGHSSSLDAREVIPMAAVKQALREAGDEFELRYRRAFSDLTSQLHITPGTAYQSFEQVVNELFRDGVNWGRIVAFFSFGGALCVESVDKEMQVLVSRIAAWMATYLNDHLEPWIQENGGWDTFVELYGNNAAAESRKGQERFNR
Chain of recombinant BFL-1/A1ΔC (Q16548 1-153, stated change not applied): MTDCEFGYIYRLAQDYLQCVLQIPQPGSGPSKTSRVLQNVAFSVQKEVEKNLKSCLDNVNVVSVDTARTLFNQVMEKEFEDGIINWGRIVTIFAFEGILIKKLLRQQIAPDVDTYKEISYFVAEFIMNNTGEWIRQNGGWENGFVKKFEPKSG
Chain of recombinant BCL-wΔC (Q92843 1-164, stated change not applied): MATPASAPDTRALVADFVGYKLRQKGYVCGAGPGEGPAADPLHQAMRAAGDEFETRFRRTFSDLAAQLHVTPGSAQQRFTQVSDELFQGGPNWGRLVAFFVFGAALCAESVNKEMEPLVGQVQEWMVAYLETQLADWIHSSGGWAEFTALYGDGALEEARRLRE

In the case of “NOXA SAHBB (from UniProt Q13794 19-43) (peptide)”, the Kd in assay [1] is 110 nM; in the assay with recombinant BCL-wΔC [2] it was over 1000 nM; in the assay with recombinant BCL-XLΔC [3], over 1000 nM; in assay [4], 109 nM; with recombinant BFL-1/A1ΔC [5], over 1000 nM.

As for “NOXA SAHBA (stapled NOXA BH3 helix) (from UniProt Q13794) (peptide)”, the equilibrium dissociation constant (Kd) in [6] is under 50 nM; with recombinant BCL-wΔC [7], over 1000 nM; with recombinant BCL-XLΔC [8], over 1000 nM; in [9], 22 nM; in the assay with recombinant BFL-1/A1ΔC [10], 416 nM; in assay [11], 22 nM.

As to BIM SAHB (BIM SAHBA) (peptide), the Kd turned out to be 2 nM in the assay with recombinant BCL-wΔC [7] and 18 nM with recombinant BFL-1/A1ΔC [10]. Also, the EC50 (read off the curve) in the assay with recombinant BFL-1/A1ΔC [12] stood at 50 nM.

With {FITC}-DIIRNIARHLA[S5]VGD[S5][Nle]DRSIRR (staple 12-16, domain: BH3) [BID SAHB], the Kd was under 50 nM in assay [13]; 54 nM in the assay with recombinant BCL-wΔC [7]; 28 nM with recombinant BCL-XLΔC [8]; 95 nM with recombinant BFL-1/A1ΔC [10]; 50 nM in [14]; 50 nM in [15].

Consider {FITC}-IWI[S5]QEL[S5]RFGDKFNAYYAR (staple 4-8) [BIM SAHBD with Ile65 to Phe and Glu68 to Lys (MCL-1-specificity tailored BIM SAHB)], for which, in assay [16], the concentration giving a half-maximal response (EC50 (read off the curve)) was about 10 nM.

B1: BAK SAHB (peptide)
peptide: {FITC}-QVGRQLA[S5]IGD[S5]INRRYD
modifications: staple 8-12
notes: also called FITC-BAK SAHB; BAK BH3 helix
Turning to B1, in assay [17], the IC50 is 270 nM. For the same molecule, the Kd is under 50 nM in assay [13]; 17 nM with recombinant BCL-wΔC [7]; 15 nM in the assay with recombinant BCL-XLΔC [8]; 92 nM with recombinant BFL-1/A1ΔC [10]; 7 nM in assay [18]; 7 nM in assay [15].

Take {FITC}-RLAEVSAVLL[S5]LGD[S5]LE[Nle]IR (staple 11-15) [BOK SAHB]: the Kd in assay [13] is under 50 nM; in [18] it was 115 nM; in assay [19], 115 nM; with recombinant BCL-wΔC [2] it was 416 nM; with recombinant BCL-XLΔC [3], 316 nM; with recombinant BFL-1/A1ΔC [5], over 1000 nM.

Turning to {FITC}-QWAREIGAQLR[S5][Nle]AD[S5]LNAQY (staple 12-16, domain: BH3) [PUMA SAHB], the equilibrium dissociation constant (Kd) in [13] was under 50 nM; in the assay with recombinant BCL-wΔC [7], 18 nM; in the assay with recombinant BCL-XLΔC [8] it was 9 nM; in the assay with recombinant BFL-1/A1ΔC [10], 34 nM; in assay [14] it was 14 nM; in [15], 14 nM.

For {FITC}-ASTKKLSESLK[S5]IGD[S5]LDSN (staple 12-16, domain: BH3) [BAX SAHB], the Kd is under 50 nM in assay [13]; 24 nM in the assay with recombinant BCL-wΔC [7]; 15 nM with recombinant BCL-XLΔC [8]; 28 nM with recombinant BFL-1/A1ΔC [10]; 101 nM in assay [18]; 101 nM in [15].

B2: MCL-1 SAHBA (stapled MCL-1 BH3 helix, parental) (peptide)
peptide: KALETLR[S5]VGD[S5]VQRNHETAF
modifications: staple 8-12; also: N-terminal FITC or acetyl depending on assay
notes: domain: BH3; also called FITC-MCL-1 SAHBA
Consider B2, for which, in assay [13], the Kd was under 50 nM. Moreover, the Ki in assay [20] amounted to 3100 nM.

B3: MCL-1 SAHBA V220F (peptide, UniProt Q07820 208-228, looked up)
peptide: {FITC}-KALETLR[S5]VGD[S5]FQRNHETAF
modifications: staple 8-12
notes: domain: BH3; also called V220F point mutation in MCL-1 SAHB
With B3, the Kd in assay [21] was found to be 191 nM.
